Results published in paper PMC5741291 (2017).

Target: Actin (F-actin, skeletal muscle) (Oryctolagus cuniculus, UniProt P68135)
Assay: stopped-flow light scattering

B1: Myosin IIIA motor domain (p-huM3AMD) 311-1058 (protein)
chain: MGGTEKARRERIHTKKGNFNRPLISNLKDVDDLATLEILDENTVSEQLEKCYSRDQIYVYVGDILIALNPFQSLGLYSTKHSKLYIGSKRTASPPHIFAMADLGYQSMITYNSDQCIVISGESGAGKTENAHLLVQQLTVLGKANNRTLQEKILQVNNLVEAFGNACTIINDNSSRFGKYLEMKFTSSGAVVGAQISEYLLEKSRVIHQAIGEKNFHIFYYIYAGLAEKKKLAHYKLPENKPPRYLQNDHLRTVQDIMNNSFYKSQYELIEQCFKVIGFTMEQLGSIYSILAAILNVGNIEFSSVATEHQIDKSHISNHTALENCASLLCIRADELQEALTSHCVVTRGETIIRPNTVEKATDVRDAMAKTLYGRLFSWIVNCINSLLKHDSSPSGNGDELSIGILDIFGFENFKKNSFEQLCINIANEQIQYYYNQHVFAWEQNEYLNEDVDARVIEYEDNWPLLDMFLQKPMGLLSLLDEESRFPKATDQTLVEKFEGNLKSQYFWRPKRMELSFGIHHYAGKVLYNASGFLAKNRDTLPTDIVLLLRSSDNSVIRQLVNHPLTKTGNLPHSKTKNVINYQMRTSEKLINLAKGDTGEATRHARETTNMKTQTVASYFRYSLMDLLSKMVVGQPHFVRCIKPNSERQARKYDKEKVLLQLRYTGILETARIRRLGFSHRILFANFIKRYYLLCYKSSEEPRMSPDTCATILEKAGLDNWALGKTKVFLKYYHVEQLNLMRKEAIDK
modifications: phosphorylated by myosin IIIA kinase domain, MgADP
Kd: 1.07 µM
